The text below walks through data of patent US5767078A, “Agonist peptide dimers” (priority 1995, dated 1998).

Where two headings read alike, the source gives them in different places. Bridge positions count the residues as written; N and C are the ends. Ends that are not written are not given here. Peptide text beside a SMILES is read from it. Bounds are passed on as bounds.

Assay [1] concerns the target T1, truncated human EPO receptor (Homo sapiens, UniProt P19235).
T1 construct: expressed in transfected cells; host or cells: FDC-P1/trER cells (murine FDC-P1 derived)
T1 sequence (P19235 25-468 limits assumed): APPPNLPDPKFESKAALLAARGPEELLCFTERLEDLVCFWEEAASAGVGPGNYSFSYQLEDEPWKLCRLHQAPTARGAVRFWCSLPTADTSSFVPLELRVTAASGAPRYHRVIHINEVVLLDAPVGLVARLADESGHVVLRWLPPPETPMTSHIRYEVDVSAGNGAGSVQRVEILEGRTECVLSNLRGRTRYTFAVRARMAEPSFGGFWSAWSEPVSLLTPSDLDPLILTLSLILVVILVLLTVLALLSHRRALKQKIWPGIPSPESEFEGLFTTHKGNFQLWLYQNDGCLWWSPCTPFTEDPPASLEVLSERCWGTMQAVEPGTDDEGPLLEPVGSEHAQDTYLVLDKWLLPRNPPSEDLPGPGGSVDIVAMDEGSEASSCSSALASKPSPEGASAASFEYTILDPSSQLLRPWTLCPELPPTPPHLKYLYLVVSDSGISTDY
As to the kind of experiment: EPO dependent cell proliferation assay, FDC-P1/trER cells. It is filed as cell-based. The settings on record: for EC50: read-out: EPO-ED50 truncated human receptor; for change in potency of dimer versus parent monomer (in parentheses), truncated human receptor: ratio of ED50 values. The procedure:
(§1) After 24 hours, the cells were counted, resuspended at 800,000 cells/ml and dispensed at 40,000 cells/well. Stock solutions of the peptide dimer (5 mM in PBS) and peptide (10 mM in DMSO) were prepared and dispensed in triplicate to final concentrations of 1×10^-10 M through 1×10^-5 M and adjusted to a final volume of 0.2 ml. […] After a 42 hr incubation at 37° C. (ca. 2 cell doublings) 1 μCi/well of [^3 H] thymidine was added and the incubation continued for 6 hr at which time the cells were harvested and counted to assess [^3 H]thymidine incorporation as a measure of cell proliferation.

The next assay deals with T2, murine EPO receptor (Mus musculus, UniProt P14753).
T2 construct: expressed in transfected cells; host or cells: FDC-P1/ER cells
T2 sequence (P14753 25-507): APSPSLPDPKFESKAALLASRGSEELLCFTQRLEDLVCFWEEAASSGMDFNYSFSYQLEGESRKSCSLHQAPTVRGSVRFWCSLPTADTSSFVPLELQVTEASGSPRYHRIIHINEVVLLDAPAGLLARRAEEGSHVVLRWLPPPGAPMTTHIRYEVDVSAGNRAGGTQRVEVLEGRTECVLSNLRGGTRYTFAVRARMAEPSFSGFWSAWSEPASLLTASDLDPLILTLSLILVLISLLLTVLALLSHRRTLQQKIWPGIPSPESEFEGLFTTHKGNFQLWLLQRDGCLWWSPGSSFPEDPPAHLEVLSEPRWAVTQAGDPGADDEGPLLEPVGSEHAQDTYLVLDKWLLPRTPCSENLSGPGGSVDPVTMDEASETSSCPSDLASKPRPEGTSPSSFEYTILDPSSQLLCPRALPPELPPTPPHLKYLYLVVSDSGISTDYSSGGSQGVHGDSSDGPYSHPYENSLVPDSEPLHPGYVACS
As to the kind of experiment: EPO dependent cell proliferation assay, FDC-P1/ER cells. It is filed as cell-based. The settings on record: for EPO-ED50 murine receptor / change in potency of dimer versus parent monomer (in parentheses), murine receptor: FDC-P1/ER; for EPO-ED50 murine receptor: [3H]thymidine incorporation, amount giving half of maximal activity obtained with EPO; for change in potency of dimer versus parent monomer (in parentheses), murine receptor: ratio of ED50 values. The procedure:
as §1
In general terms: Uptake of a labelled nucleoside into DNA is a usual measure of proliferation.

For assay [2], the target named is T3, extracellular domain of the human erythropoietin receptor (EPO binding protein, EBP) (Homo sapiens, UniProt P19235).
T3 construct: made in house; host or cells: E. coli
T3 sequence (P19235 25-250 limits assumed): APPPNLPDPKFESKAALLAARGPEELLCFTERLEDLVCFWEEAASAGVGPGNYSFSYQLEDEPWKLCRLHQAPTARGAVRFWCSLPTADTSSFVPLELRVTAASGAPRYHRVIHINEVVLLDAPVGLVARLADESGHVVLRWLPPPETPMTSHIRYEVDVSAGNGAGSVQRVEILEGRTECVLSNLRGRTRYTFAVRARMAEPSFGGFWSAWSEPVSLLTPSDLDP
Briefly: Immobilized EBP based [125I]EPO competition binding assay. Conditions: for Relative Binding (binding relative to Seq. I. D. No. 8): IC50 in [125I]EPO competition on EBP beads, relative to Seq. I. D. No. 8 (IC50 5 μM). The procedure: The iodoacetyl activation chemistry of Sufolink beads (Pierce Chemical Co, Rockford, Ill.) is specific for free thiols and assures that the linkage is not easily reversible. EBP-Sulfolink beads were made as follows: SulfoLink gel suspension (10 ml) was mixed with of coupling buffer (40 ml: 50 mM Tris, pH 8.3, 5 mM EDTA) and the gel was allowed to settle. […] The mixture was rocked gently for 30 minutes at room temperature and the beads were allowed to settle for 1 hour at room temperature. The supernatant was removed and retained. The beads were washed twice with 20 ml of coupling buffer. The washes were recovered as well. The beads were then treated with 20 ml of 0.05M cysteine for 30 minutes at room temperature to block unbound sites. Finally, the beads were washed with 50 ml of 1M NaCl, then with 30 ml of PBS, and resuspended in 20 ml of PBS and stored at 4° C. The amount of EBP which was covalently bound to the beads was determined by comparing the OD280 of the original EBP solution to the total OD280 recovered in the reaction supernatant and the two 20 ml washes.
Competitive binding analysis assays of candidate peptides and dimer peptides were performed as outlined below. Individual peptides were dissolved in DMSO to prepare a stock solution […]. Dimer peptides were contained within PBS at a concentration of 5 mM.
Initial assay points with no added peptide were included in each assay to determine total binding. Binding mixtures were incubated overnight at room temperature with gentle rocking. The beads were then collected using Micro-columns (Isolab, Inc.) and washed with 3 mL of wash buffer. The columns containing the washed beads were placed in 12×75 mm glass tubes and bound radioactivity levels determined in a gamma counter.

The mark [3] stands for this setting: FDC-P1/trER, [3H]thymidine incorporation, amount giving half of maximal activity obtained with EPO.

As to `CC(C)C[C@@H]1NC(=O)[C@@H]2CCCN2C(=O)CNC(=O)[C@H](Cc2ccccc2)NC(=O)[C@H](Cc2c[nH]cn2)NC(=O)[C@@H](NC(=O)[C@H](CO)NC(=O)[C@H](Cc2ccc(O)cc2)NC(=O)[C@@H](NC(=O)CNC(=O)CN)[C@@H](C)O)CSSC[C@@H](C(=O)N[C@@H](CCCCN)C(=O)N2CCC[C@H]2C(=O)N[C@@H](CCC(N)=O)C(=O)NCC(=O)NCC(N)=O)NC(=O)[C@H](C(C)C)NC(=O)[C@H](Cc2c[nH]c3ccccc23)NC(=O)[C@H]([C@@H](C)O)NC1=O` [Seq. I. D. No. 8] (H-GGTYSCHFGPLTWVCKPQGG-NH2; disulfide 6-15), in assay [1], the EC50 was 90 nM.

With `CC(C)C[C@@H]1NC(=O)[C@@H]2CCCN2C(=O)CNC(=O)[C@H](Cc2ccccc2)NC(=O)[C@H](Cc2c[nH]cn2)NC(=O)[C@@H](NC(=O)[C@@H](N)CO)CSSC[C@@H](C(=O)N[C@@H](CCCCN)C(N)=O)NC(=O)[C@H](C(C)C)NC(=O)[C@H](Cc2c[nH]c3ccccc23)NC(=O)[C@H]([C@@H](C)O)NC1=O` [peptide (SEQ ID NO: 18)] (H-SCHFGPLTWVCK-NH2; disulfide 2-11), the “activity in the in vitro cell proliferation assay (in words)” value at murine EPO receptor (cell line not given) is “inactive”.

In the case of “Ac-GGTYSCHFGPLTWVCKPQGG (Ac-GGTYSCHFGPLTWVCKPQGG-NH2; disulfide 6-15 (inferred)) [Seq. I. D. No. 20]”, the EPO-ED50 murine receptor with murine EPO receptor amounted to 30 nM. Also, the “Relative Binding (binding relative to Seq. I. D. No. 8)” value in assay [2] is 4. Further, in assay [1] (setting [3]), the EC50 is 60 nM.

For the compound “GGLYACHMGPMTWVCQPLRG [Seq. I. D. No. 14]”, the EPO-ED50 murine receptor with murine EPO receptor came out at 100 nM. In addition, in assay [1] (setting [3]), the EC50 stood at 80 nM.

On to “SAP2/Seq. I. D. No. 8 covalent dimer #1: PEG (SPA2, MW ca. 3400) dimer of peptide GGTYSCHFGPLTWVCKPQGG, lot #1, Example 2 (GGTYSCHFGPLTWVCKPQGG-NH2; disulfide 6-15 (inferred); not fully specified)”, for which, in the assay with murine EPO receptor, the “increase in potency versus parent peptide, murine receptor line” value came out at 10 fold; the EPO-ED50 murine receptor was found to be 10 nM; the “change in potency of dimer versus parent monomer (in parentheses), murine receptor” value (“change in potency … murine receptor” below) amounted to 10 X. Also, the “ED50, cell line containing the murine EPO receptor” value with murine EPO receptor (text of Example 11) worked out at 10 nM. Also, the “Relative Binding (binding relative to Seq. I. D. No. 8)” value in assay [2] turned out to be 4. Moreover, the IC50 – broadly, the concentration that inhibits the measured activity by half – in assay [2] (concentration reducing [125I]EPO binding to EBP beads by 50%, 0.5 nM [125I]EPO) turned out to be 20000 nM. In addition, the “increase in potency versus parent peptide, human receptor line” value in assay [1] was roughly 60 fold. Besides, the EC50 in assay [1] (setting [3]) is 1.5 nM. Also, the “change in potency of dimer versus parent monomer (in parentheses), truncated human receptor” value (“change in potency … truncated human receptor” for short) in assay [1] (FDC-P1/trER) came out at 60 X. In addition, the “ED50, cell line containing the human EPO receptor” value in assay [1] (text of Example 11) was 1.5 nM.

For “SAP2/Seq. I. D. No. 8 covalent dimer #2: PEG (SPA2, MW ca. 3400) dimer of peptide GGTYSCHFGPLTWVCKPQGG, lot #2, Example 3 (GGTYSCHFGPLTWVCKPQGG-NH2; disulfide 6-15 (inferred); not fully specified)”, in the assay with murine EPO receptor, the “increase in potency versus parent peptide, murine receptor line” value was determined as 10 fold; the EPO-ED50 murine receptor came out at 10 nM; the “change in potency … murine receptor” value turned out to be 10 X. Besides, the “Relative Binding (binding relative to Seq. I. D. No. 8)” value in assay [2] is listed as 3. In assay [1], the “increase in potency versus parent peptide, human receptor line” value turned out to be 45 fold. The EC50 in assay [1] (setting [3]) is 2 nM. Moreover, the “change in potency … truncated human receptor” value in assay [1] (FDC-P1/trER) is 45 X.

In the case of “SAP2/Seq. I. D. No. 13 covalent dimer: PEG (SPA2) dimer of peptide GGTYSCHFGPLTWVCKPQ, Example 4 (GGTYSCHFGPLTWVCKPQ-NH2; disulfide 6-15 (inferred); also: PEG (SPA2) covalent dimer)”, in assay [1] (setting [3]), the EC50 is 2 nM. Besides, the “change in potency … truncated human receptor” value in assay [1] (FDC-P1/trER) is 10 X.

In the case of “SAP2/Seq. I. D. No. 20 covalent dimer: PEG (SPA2) dimer of peptide Ac-GGTYSCHFGPLTWVCKPQGG, Example 5 (Ac-GGTYSCHFGPLTWVCKPQGG-NH2; disulfide 6-15 (inferred); also: PEG (SPA2) covalent dimer)”, in the assay with murine EPO receptor, the EPO-ED50 murine receptor is 200 nM and the “change in potency … murine receptor” value is on record as -7 X. Moreover, the “Relative Binding (binding relative to Seq. I. D. No. 8)” value in assay [2] stood at 12. The EC50 in assay [1] (setting [3]) is 50 nM.

Take “dimeric peptide: PEG (SPA2) dimer of peptide SCHFGPLTWVCK (SEQ ID NO: 18), Example 7 (SCHFGPLTWVCK-NH2; disulfide 2-11 (inferred); also: PEG (SPA2) covalent dimer)”: the “proliferation (cpm) relative to background” value in assay [1] (10^-5 M, human EPO receptor cell line, FIG. 8) is listed as “twice as many cpm as background”.

“mPEG/Seq. I. D. No. 8, peak #1: mono-PEG conjugate of peptide SEQ ID NO: 8 with m-SPA-PEG (MW ca. 5000), one PEG coupled; control (GGTYSCHFGPLTWVCKPQGG-NH2; disulfide 6-15 (inferred); not fully specified; also: one mPEG 5000 (m-SPA-PEG) conjugated, site not given here) [reference compound]” gave an EPO-ED50 murine receptor in the assay with murine EPO receptor of 2000 nM. The “Relative Binding (binding relative to Seq. I. D. No. 8)” value in assay [2] worked out at 60. Moreover, the EC50 in assay [1] (setting [3]) stood at 100 nM.

“mPEG/Seq. I. D. No. 8, peak #2: conjugate of peptide SEQ ID NO: 8 with m-SPA-PEG (MW ca. 5000), two PEG molecules coupled; control (GGTYSCHFGPLTWVCKPQGG-NH2; disulfide 6-15 (inferred); not fully specified; also: two mPEG 5000 (m-SPA-PEG) conjugated, sites not given here) [reference compound]”: the EPO-ED50 murine receptor with murine EPO receptor is 1000 nM. In addition, the “Relative Binding (binding relative to Seq. I. D. No. 8)” value in assay [2] was greater than 40. In assay [1] (setting [3]), the EC50 was 400 nM.
